The text below walks through data of US20250002574A1.

In the assay the target is IL-11 (UniProt P20809). The assay can be described thus: ELISA on IL-11, positive control antibody ab130083.
IL-11, sequence (P20809 22-199 limits assumed): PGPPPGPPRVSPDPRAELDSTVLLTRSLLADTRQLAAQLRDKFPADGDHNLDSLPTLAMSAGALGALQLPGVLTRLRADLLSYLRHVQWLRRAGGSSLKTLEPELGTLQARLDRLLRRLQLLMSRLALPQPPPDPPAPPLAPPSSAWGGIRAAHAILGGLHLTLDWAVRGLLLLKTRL

For 6D9A1 (Abcam, ab130083) (antibody), the OD(450 nm) value was determined as 3.62 OD450.
